To fix the notation:
B1: acetylated hexapeptide of sequence FQNGKS (Ac-Phe-Gln-Asn-Gly-Lys-Ser-NH2) (peptide)
peptide: Ac-FQNGKS-NH2
B2: PsFcγRIIa (recombinant soluble human FcγRIIa protein produced in baculovirus-infected Sf-21 cells) (receptor)
chain: APPKAVLKLEPPWINVLQEDSVTLTCQGARSPESDSIQWFHNGNLIPTHTQPSYRFKANNNDSGEYTCQTGQTSLSDPVHLTVLFEWLVLQTPHLEFQEGETIMLRCHSWKDKPLVKVTFFQNGKSQKFSHLDPTFSIPQANHSHSGDYHCTGNIGYTLFSSKPVTITVQV
notes: Amplified from FcγRIIa LR cDNA; also called PsFc.RIIa; soluble FcγRIIa

Assay [1] concerns the target B2. Briefly: SPR; FcγRIIa (50 µg/mL) premixed with a range of hexapeptide concentrations, passed over immobilised IgG3; against no peptide. On the procedure:
(§1) At the conclusion of the concentration dependence measurements all surfaces were regenerated using 50 mM diethylamine (pH 11.5), 1 M NaCl. The total response measured for each concentration of peptide was determined and plotted against the peptide concentration. The non-specific binding responses (IgE channel) were subtracted from binding to IgG1 or IgG3.
In general terms: Surface plasmon resonance follows binding to a sensor surface in real time, without labels.

Assay [2] concerns the target B2. Put plainly: SPR; FcγRIIa (50 µg/mL) premixed with a range of hexapeptide concentrations, passed over immobilised IgG1; against no peptide. On the procedure: as §1
Assay [3] has as its target T1, monomeric human IgG1 (human).
T1 construct: Immobilised by amine coupling on a CM5 chip
Put plainly: SPR equilibrium, two site fit, immobilised IgG1; about 90% of the sites. Here is the method: (§2) About 4000 to about 6000 response units (RU) of monomeric human immunoglobulin subclasses IgG1, IgG2, IgG3, and IgE (50 ug/ml of each) were covalently coupled to separate carboxymethylated dextran surface of each CM5 sensor-chips (available from BIAcore, Uppsala, Sweden) using a amine coupling kit (available from BIAcore), according to manufacturer's methods. […] Following administration of the protein, the immunoglobulin surface was regenerated on each chip using a buffer containing 50 mM diethylamine pH 11.5, and 1 M NaCl. […] Data points obtained from the IgE channels were subtracted to correct for refractive index differences.

Assay [4] deals with T2, monomeric human IgG3 (human, UniProt P01860-1 1-377).
T2 construct: Immobilised by amine coupling on a CM5 chip
T2 sequence (P01860 other isoform, or with tags, fused parts or gaps): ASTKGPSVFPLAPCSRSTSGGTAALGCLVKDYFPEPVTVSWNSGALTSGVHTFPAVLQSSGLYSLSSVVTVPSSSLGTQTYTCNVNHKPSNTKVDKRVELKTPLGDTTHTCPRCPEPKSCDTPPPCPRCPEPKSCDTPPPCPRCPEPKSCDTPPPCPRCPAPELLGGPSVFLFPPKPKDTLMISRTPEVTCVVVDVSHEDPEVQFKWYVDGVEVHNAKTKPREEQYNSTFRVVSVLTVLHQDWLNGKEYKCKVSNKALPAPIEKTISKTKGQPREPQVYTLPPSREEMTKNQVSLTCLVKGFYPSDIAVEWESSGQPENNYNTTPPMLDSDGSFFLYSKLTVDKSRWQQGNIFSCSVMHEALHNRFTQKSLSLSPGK
Put plainly: SPR equilibrium, two site fit, immobilised IgG3; 50% of the sites. Here is the method: as §2

Assay [5] has as its target T2, monomeric human IgG3. Briefly: SPR equilibrium, two site fit, immobilised IgG3; remaining 50% of the sites. Here is the method:
as §2

Assay [6] deals with T1, monomeric human IgG1. Briefly: SPR equilibrium, two site fit, immobilised IgG1; remaining 10% of the sites. On the procedure: as §2

Consider two molecules from US20060057144A1 (published 2006).

As for B1, the “fold enhancement of FcγRIIa binding to IgG3” value in assay [1] was 1.6 fold. Also, the “fold enhancement of FcγRIIa binding to IgG1” value in assay [2] is 4 fold.
Turning to B2, the Ka was approximately 2.1e+06 M⁻¹ in assay [3], approximately 2.7e+06 M⁻¹ in assay [4], approximately 12000 M⁻¹ in assay [5] and approximately 23000 M⁻¹ in assay [6].
